Results as given in publication PMC11098746 (2024).

B1: ADP351 (protein)
chain: MARRRGSPGMGVHVGAALGALWFCLTGALEVQVPEDPVVALVGTDATLCCSFSPEPGFSLAQLNLIWQLTDTKQLVHSFAEGQDQGSAYANRTALFPDLLAQGNASLRLQRVRVADEGSFTCFVSIRDFGSAAVSLQVAAPYSKPSMTLEPNKDLRPGDTVTITCSSYQGYPEAEVFWQDGQGVPLTGNVTTSQMANEQGLFDVHSILRVVLGANGTYSCLVRNPVLQQDAHSSVTITPQRSPTGAVEVQVPEDPVVALVGTDATLRCSFSPEPGFSLAQLNLIWQLTDTKQLVHSFTEGRDQGSAYANRTALFPDLLAQGNASLRLQRVRVADEGSFTCFVSIRDFGSAAVSLQVAAPYSKPSMTLEPNKDLRPGDTVTITCSSYRGYPEAEVFWQDGQGVPLTGNVTTSQMANEQGLFDVHSVLRVVLGANGTYSCLVRNPVLQQDAHGSVTITGQPMTFPP
modifications: bait human Fc-tagged dimer
B2: ADP304 (protein)
chain: MASGWWLWPLVAVCTADFFRDEAERIMRDSPVIDGHNDLPWQLLDMFNNRLQDERANLTTLAGTHTNIPKLRAGFVGGQFWSVYTPCDTQNKDAVRRTLEQMDVVHRMCRMYPETFLYVTSSAGIRQAFREGKVASLIGVEGGHSIDSSLGVLRALYQLGMRYLTLTHSCNTPWADNWLVDTGDSEPQSQGLSPFGQRVVKELNRLGVLIDLAHVSVATMKATLQLSRAPVIFSHSSAYSVCASRRNVPDDVLRLVKQTDSLVMVNFYNNYISCTNKANLSQVADHLDHIKEVAGARAVGFGGDFDGVPRVPEGLEDVSKYPDLIAELLRRNWTEAEVKGALADNLLRVFEAVEQASNLTQAPEEEPIPLDQLGGSCRTHYGYSS
modifications: bait human Fc-tagged dimer
B3: ADP375 (protein)
chain: SSKYAPDENCPDQNPRLRNWDPGQDSAKQVVIKEGDMLRLTSDATVHSIVIQDGGLLVFGDNKDGSRNITLRTHYILIQDGGALHIGAEKCRYKSKATITLYGKSDEGESMPTFGKKFIGVEAGGTLELHGARKASWTLLARTLNSSGLPFGSYTFEKDFSRGLNVRVIDQDTAKILESERFDTHEYRNESRRLQEFLRFQDPGRIVAIAVGDSAAKSLLQGTIQMIQERLGSELIQGLGYRQAWALVGVIDGGSTSCNESVRNYENHSSGGKALAQREFYTVDGQKFSVTAYSEWIEGVSLSGFRVEVVDGVKLNLLDDVSSWKPGDQIVVASTDYSMYQAEEFTLLPCSECSHFQVKVKETPQFLHMGEIIDGVDMRAEVGILTRNIVIQGEVEDSCYAENQCQFFDYDTFGGHIMIMKNFTSVHLSYVELKHMGQQQMGRYPVHFHLCGDVDYKGGYRHATFVDGLSIHHSFSRCITVHGTNGLLIKDTIGFDTLGHCFFLEDGIEQRNTLFHNLGLLTKPGTLLPTDRNNSMCTTMRDKVFGNYIPVPATDCMAVSTFWIAHPNNNLINNAAAGSQDAGIWYLFHKEPTGESSGLQLLAKPELTPLGIFYNNRVHSNFKAGLFIDKGVKTTNSSAADPREYLCLDNSARFRPHQDANPEKPRVAALIDRLIAFKNNDNGAWVRGGDIIVQNSAFADNGIGLTFASDGSFPSDEGSSQEVSESLFVGESRNYGFQGGQNKYVGTGGIDQKPRTLPRNRTFPIRGFQIYDGPIHLTRSTFKKYVPTPDRYSSAIGFLMKNSWQITPRNNISLVKFGPHVSLNVFFGKPGPWFEDCEMDGDKNSIFHDIDGSVTGYKDAYVGRMDNYLIRHPSCVNVSKWNAVICSGTYAQVYVQTWSTQNLSMTITRDEYPSNPMVLRGINQKAAFPQYQPVVMLEKGYTIHWNGPAPRTTFLYLVNFNKNDWIRVGLCYPSNTSFQVTFGYLQRQNGSLSKIEEYEPVHSLEELQRKQSERKFYFDSSTGLLFLYLKAKSHRHGHSYCSSQGCERVKIQAATDSKDISNCMAKAYPQYYRKPSVVKRMPAMLTGLCQGCGTRQVVFTSDPHKSYLPVQFQSPDKAETQRGDPSVISVNGTDFTFRSAGVLLLVVDPCSVPFRLTEKTVFPLADVSRIEEYLKTGIPPRSIVLLSTRGEIKQLNISHLLVPLGLAKPAHLYDKGSTIFLGFSGNFKPSWTKLFTSPAGQGLGVLEQFIPLQLDEYGCPRATTVRRRDLELLKQASKAH
modifications: bait human Fc-tagged dimer
B4: ADP322 (protein)
chain: MAALGPALLQALWAGWVLTLQPLPPTAFTPNGTYLQHLARDPTSGTLYLGATNFLFQLSPGLQLEATVSTGPVLDSRDCLPPVMPDECPQAQPTNNPNQLLLVSPGALVVCGSVHQGVCEQRRLGQLEQLLLRPERPGDTQYVAANDPAVSTVGLVAQGLAGEPLLFVGRGYTSRGVGGGIPPITTRALWPPDPQAAFSYEETAKLAVGRLSEYSHHFVSAFARGASAYFLFLRRDLQAQSRAFRAYVSRVCLRDQHYYSYVELPLACEGGRYGLIQAAAVATSREVAHGEVLFAAFSSAAPPTVGRPPSAAAGASGASALCAFPLDEVDRLANRTRDACYTREGRAEDGTEVAYIEYDVNSDCAQLPVDTLDAYPCGSDHTPSPMASRVPLEATPILEWPGIQLTAVAVTMEDGHTIAFLGDSQGQLHRVYLGPGSDGHPYSTQSIQQGSAVSRDLTFDGTFEHLYVMTQSTLLKVPVASCAQHLDCASCLAHRDPYCGWCVLLGRCSRRSECSRGQGPEQWLWSFQPELGCLQVAAMSPANISREETREVFLSVPDLPPLWPGESYSCHFGEHQSPALLTGSGVMCPSPDPSEAPVLPRGADYVSVSVELRFGAVVIAKTSLSFYDCVAVTELRPSAQCQACVSSRWGCNWCVWQHLCTHKASCDAGPMVASHQSPLVSPDPPARGGPSPSPPTAPKALATPAPDTLPVEPGAPSTATASDISPGASPSLLSPWGPWAGSGSISSPGSTGSPLHEEPSPPSPQNGPGTAVPAPTDFRPSATPEDLLASPLSPSEVAAVPPADPGPEALHPTVPLDLPPATVPATTFPGAMGSVKPALDWLTREGGELPEADEWTGGDAPAFSTSTLLSGDGDSAELEGPPAPLILPSSLDYQYDTPGLWELEEATLGASSCPCVESVQGSTLMPVHVEREIRLLGRNLHLFQDGPGDNECVMELEGLEVVVEARVECEPPPDTQCHVTCQQHQLSYEALQPELRVGLFLRRAGRLRVDSAEGLHVVLYDCSVGHGDCSRCQTAMPQYGCVWCEGERPRCVTREACGEAEAVATQCPAPLIHSVEPLTGPVDGGTRVTIRGSNLGQHVQDVLGMVTVAGVPCAVDAQEYEVSSSLVCITGASGEEVAGATAVEVPGRGRGVSEHDFAYQDPKVHSIFPARGPRAGGTRLTLNGSKLLTGRLEDIRVVVGDQPCHLLPEQQSEQLRCETSPRPTPATLPVAVWFGATERRLQRGQFKYTLDPNITSAGPTKSFLSGGREICVRGQNLDVVQTPRIRVTVVSRMLQPSQGLGRRRRVVPETACSLGPSCSSQQFEEPCHVNSSQLITCRTPALPGLPEDPWVRVEFILDNLVFDFATLNPTPFSYEADPTLQPLNPEDPTMPFRHKPGSVFSVEGENLDLAMSKEEVVAMIGDGPCVVKTLTRHHLYCEPPVEQPLPRHHALREAPDSLPEFTVQMGNLRFSLGHVQYDGESPGAFPVAAQ
modifications: bait human Fc-tagged dimer
B5: ADP344 (protein)
chain: MAWSFFRVVAMLFIFLVVVEVNSEFRIQVRDYNTKNGTIKWHSIRRQKREWIKFAAACREGEDNSKRNPIAKIHSDCAANQQVTYRISGVGIDQPPYGIFVINQKTGEINITSIVDREVTPFFIIYCRALNSMGQDLERPLELRVRVLDINDNPPVFSMATFAGQIEENSNANTLVMILNATDADEPNNLNSKIAFKIIRQEPSDSPMFIINRNTGEIRTMNNFLDREQYGQYALAVRGSDRDGGADGMSAECECNIKILDVNDNIPYMEQSSYTIEIQENTLNSNLLEIRVIDLDEEFSANWMAVIFFISGNEGNWFEIEMNERTNVGILKVVKPLDYEAMQSLQLSIGVRNKAEFHHSIMSQYKLKASAISVTVLNVIEGPVFRPGSKTYVVTGNMGSNDKVGDFVATDLDTGRPSTTVRYVMGNNPADLLAVDSRTGKLTLKNKVTKEQYNMLGGKYQGTILSIDDNLQRTCTGTININIQSFGNDDRTNTEPNTKITTNTGRQESTSSTNYDTSTTSTDSSQVYSSEPGNGAKDLLSDNVHFGPAG
modifications: bait human Fc-tagged dimer
B6: ADP282 (protein)
chain: STWVTSEAYSSPSIVLSARGGDGSRIIFDDFREAYYWLRHNTPEDAKVMSWWDYGYQITAMANRTILVDNNTWNNTHISRVGQAMASTEEKAYEIMRELDVSYVLVIFGGLTGYSSDDINKFLWMVRIGGSTDTGKHIKENDYYTPTGEFRVDREGSPVLLNCLMYKMCYYRFGQVYTEAKRPPGFDRVRNAEIGNKDFELDVLEEAYTTEHWLVRIYKVKDLDNRGLSRT
modifications: bait human Fc-tagged dimer

Biological target: Circumsporozoite protein (CSP) (Plasmodium falciparum (isolate 3D7), UniProt Q7K740)
Sequence (Q7K740 19-374): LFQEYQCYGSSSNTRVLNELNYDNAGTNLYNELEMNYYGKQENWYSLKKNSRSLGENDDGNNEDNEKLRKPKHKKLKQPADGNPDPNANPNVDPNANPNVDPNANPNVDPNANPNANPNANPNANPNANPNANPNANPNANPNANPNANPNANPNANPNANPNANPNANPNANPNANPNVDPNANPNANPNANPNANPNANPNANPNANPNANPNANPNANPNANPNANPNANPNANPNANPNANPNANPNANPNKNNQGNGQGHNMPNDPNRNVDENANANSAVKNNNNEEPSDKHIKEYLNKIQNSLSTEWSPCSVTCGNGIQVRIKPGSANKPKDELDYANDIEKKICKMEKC
Assay: AVEXIS screen signal:noise (double-corrected)

Row | Binder | binding score
1 | B1 | 1.23
2 | B2 | 0.718
3 | B3 | 0.71
4 | B4 | 2.59
5 | B5 | 1.01
6 | B6 | 0.691
